Biological target: T1, NiV-G-Fc, a fusion construct between the ectodomain of NiV-G and the Fc region of human IgG1 (Nipah virus, UniProt Q9IH62 71-602)
T1 chain: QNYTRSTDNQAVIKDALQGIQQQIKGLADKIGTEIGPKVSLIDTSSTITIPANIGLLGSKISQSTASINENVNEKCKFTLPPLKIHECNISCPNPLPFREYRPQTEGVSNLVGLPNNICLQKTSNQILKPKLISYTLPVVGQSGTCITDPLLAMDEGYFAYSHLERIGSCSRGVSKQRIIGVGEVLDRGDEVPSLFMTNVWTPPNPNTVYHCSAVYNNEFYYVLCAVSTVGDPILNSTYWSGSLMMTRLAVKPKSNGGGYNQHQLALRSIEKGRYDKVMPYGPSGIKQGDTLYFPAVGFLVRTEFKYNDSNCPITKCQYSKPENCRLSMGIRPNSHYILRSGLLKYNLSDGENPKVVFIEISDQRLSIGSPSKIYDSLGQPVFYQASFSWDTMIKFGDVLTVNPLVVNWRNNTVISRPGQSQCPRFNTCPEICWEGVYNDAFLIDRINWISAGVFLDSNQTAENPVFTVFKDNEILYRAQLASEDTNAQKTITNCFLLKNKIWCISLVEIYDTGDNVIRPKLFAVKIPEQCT
Experiment: SPR

B1: ephrinB3-Fc (soluble Fc-fusion ephrin protein, purchased) (Fc fusion)
chain: LSLEPVYWNSANKRFQAEGGYVLYPQIGDRLDLLCPRARPPGPHSSPNYEFYKLYLVGGAQGRRCEAPPAPNLLLTCDRPDLDLRFTIKFQEYSPNLWGHEFRSHHDYYIIATSDGTREGLESLQGGVCLTRGMKVLLRVGQSPRGGAVPRKPVSEMPMERDRGAAHSLEPGKENLPGDPTSNATSRGAEGPLPPPSMP
Q: How did the Kd turn out when B1 was run?
A: The Kd was 2.83 nM.

B2: ephrinB2-Fc (soluble Fc-fusion ephrin protein, purchased) (Fc fusion)
chain: RSIVLEPIYWNSSNSKFLPGQGLVLYPQIGDKLDIICPKVDSKTVGQYEYYKVYMVDKDQADRCTIKKENTPLLNCARPDQDVKFTIKFQEFSPNLWGLEFQKNKDYYIISTSNGSLEGLDNQEGGVCQTRAMKILMKVGQDASSAGSARNHGPTRRPELEAGTNGRSSTTSPFVKPNPGSSTDGNSAGHSGNNLLGSEVA
Q: How did the Kd turn out when B2 was run?
A: Its Kd is 0.11 nM.

Reference: paper PMC1361355 (2006)
